Assay results: patent US7998460B2, “Prevention of deficits in neurogenesis with anti-inflammatory agents” (The Board of Trustees of the Leland Stanford Junior …, priority 2003, dated 2011)

Tests used:
Type in all cases: cell-based, rat
[1] = system: adult hippocampus-derived neural precursor cells; test: In vitro neuronal differentiation (doublecortin) of hippocampal neural progenitor cells, 60 hours; settings: 60 hours
Text: Neuroinflammation could inhibit neurogenesis by a variety of mechanisms, including stimulation of the HPA axis with subsequent elevation of gluccocorticoids, alterations in the relationships between progenitor cells and cells of the neuro-vasculature, or direct effects of activated microglia on the precursor cells. To determine the extent to which microglial activation might directly affect neural stem/progenitor cells, microglia were stimulated in vitro with LPS. LPS is a potent activator of microglia and up-regulates the elaboration of pro-inflammatory cytokines, including IL-6 and TNF-α. LPS-stimulated or resting microglia were then co-cultured with normal neural stem cells from the hippocampus under conditions that typically stimulate the differentiation of 30 to 40% of the progenitor cells into immature Dcx-expressing neurons (normalized to a value of 1 in FIG. 2A, control). Neurogenesis in the presence of microglia was assessed as the increase or decrease in Dcx-expressing cells relative to control. Co-culture with activated, but not resting, microglia decreased in vitro neurogenesis to approximately half of control levels (FIG. 2A). LPS added directly to precursor cells had no effect on neurogenesis.
To determine if this effect was due to soluble factors or due to cell-cell contact, hippocampal precursor cells were differentiated in the presence of media pre-conditioned by resting or activated microglia.
Activated microglia produce the potent pro-inflammatory cytokines interleukin-1β (IL-1β), tumor necrosis factor-α (TNF-α), interferon-γ (INF-γ) and interleukin-6 (IL-6). Progenitor cells were allowed to differentiate in the presence of each cytokine and the relative expression of Dcx was scored after 60 hours. […] Addition of neutralizing anti-IL-6 antibody to CM from activated microglia was able to fully restore in vitro neurogenesis (FIG. 2A). This implicated IL-6 as a key inhibitor of neurogenesis in microglial CM. […] In contrast to neurogenesis, gliogenesis was unaffected by IL-6 exposure as indicated by the lack of change in the number of cells expressing the astrocyte (glial fibrillary acidic protein, GFAP) or early oligodendrocyte (NG2) markers relative to control cultures (FIG. 2E). The hippocampal precursors used in this study do express the IL-6 receptor, as confirmed by RT-PCR (FIG. 5).
Progenitor Cell Culture Adult hippocampus-derived neural precursor cells were isolated from adult rat hippocampus and cultured as previously described. Briefly, adult female Fisher-344 rats were deeply anesthetized with sodium pentobarbital and were dissected immediately. Hippocampi were enzymatically dissociated with papain (2.5 U/ml; Worthington, Freehold, N.J.)-dispase II (1 U/ml; Boehringer Mannheim, Indianapolis, Ind.)-DNase I (250 U/ml, Worthington) solution. Digested tissue was then washed with DMEM-10% fetal calf serum (FCS) and subsequently mixed with PBS-equilibrated Percoll solution to a final concentration of 35% Percoll. The Percoll solution was made by mixing nine parts of Percoll (Amersham Pharmacia Biotech, Uppsala, Sweden) with one part of 10× PBS. The cell suspension was then fractionated by centrifugation for 10 min at 1000×gravity. Floating myelin and tissue debris were discarded and the cell pellet re-suspended in 65% Percoll solution and fractionated again by centrifugation for 10 min at 1000×g. The floating neural precursors were collected, washed free of Percoll, and plated onto poly-L-ornithine/laminin-coated dishes in DMEM/F12 (1:1) containing 10% FCS medium for 24 hrs; then medium was replaced with serum-free growth medium consisting of DMEM/F12 (1:1) supplemented with N2 supplement (Life Technologies, Gaithersburg, Md.) and 20 ng/ml of human recombinant FGF-2 (Peprotech, Rocky Hill, N.J.). Cell lines were labeled via infection with replication deficient GFP-expressing recombinant retrovirus LZRS-CAMut4GFP. […]

[2] = system: adult hippocampus-derived neural precursor cells; test: Proliferation (BrdU) and survival (TUNEL) assays in differentiating neural precursor cultures
Procedure: Proliferation and survival assays BrdU was added to the culture media from hour 24 to hour 48 of the 60 hour paradigm. Immunocytochemistry and confocal microscopy was then used to determine the fraction of GFP+ cells that labeled with BrdU, TUNEL, or type III β-tubulin or doublecortin. TUNEL staining was performed with Apoptag Red (Serologicals, Norcross, Ga.). The fraction of total (DAPI+) nuclei that were TUNEL+ were determined, as well as the fraction of doublecortin positive cells that were also TUNEL+.

[3] = system: Hes1 mRNA; test: Real-time quantitative RT-PCR of Hes1 in neural precursors; settings: 60 hours exposure
Text: Signaling via gp130, the co-receptor of the IL-6 receptor, stimulates the Notch1 pathway, resulting in an increase in expression of the mammalian homolog of hairy-enhancer-of-split, Hes 1, transcription factor and antagonism of pro-neural basic helix-loop-helix (bHLH) genes and hippocampal neurogenesis during development. To determine if IL-6 treatment of adult stem cells leads to an increase in Hes 1 consistent with the reduction in neuronal cell fate, “real-time” quantitative RT-PCR was performed on total RNA extracted from neural precursors exposed for 60 hours to activated microglial CM or IL-6. Both CM and IL-6 caused a dramatic increase in Hes1 mRNA expression (3.2- and 7.7-fold increase respectively, relative to control).
Total RNA isolation, cDNA synthesis, and SYBR Green real-time quantitative RT-PCR. […] Quantitative SYBR Green real time PCR was carried out as described previously. […] Quantitative RT-PCR was performed on ABI 5700 PCR instrument (PerkinElmer Life Sciences) by using 3-stage program parameters provided by the manufacturer as follows; 2 min at 50° C., 10 min at 95° C., and then 40 cycles of 15 s at 95° C. and 1 min at 60° C. […] Each sample was tested in five copies with quantitative PCR, and samples obtained from three independent experiments were used to calculate the means and standard deviations. […]

B1: IL-6: recombinant rat interleukin-6 (protein)
chain: FPTSQVRRGDFTEDTTPNRPVYTTSQVGGLITHVLWEIVEMRKELCNGNSDCMNNDDALAENNLKLPEIQRNDGCYQTGYNQEICLLKISSGLLEYHSYLEYMKNNLKDNKKDKARVLQRDTETLIHIFNQEVKDLHKIVLPTPISNALLTDKLESQKEWLRTKTIQFILKSLEEFLKVTLRSTRQT
gliogenesis (cells expressing GFAP or NG2 relative to control) ([1]; IL-6 50 ng/ml): unaffected | decrease of in vitro neurogenesis (relative expression of Dcx) ([1]; recombinant IL-6 50 ng/ml or TNF-α 20 ng/ml): approximately 50% | fraction of TUNEL-positive apoptotic cells ([2]; mean+/-s.e.m., differentiating culture, IL-6 50 ng/ml): 0.068+/−0.005 | fraction of TUNEL-positive cells that co-labeled with doublecortin ([2]; mean+/-sem): 0.83+/−0.02 | mitotic index (fraction of cells labeled with BrdU in 24 hours) ([2]; stem cell cultures): 95+/−1.7% | BrdU labeling within the neuronal progeny ([2]; subset of spontaneously forming immature neurons): 82+/−1.6% | increase in Hes1 mRNA expression relative to control [3]: 7.7 fold
